Reference: patent US6828116

System: T1, Cy5-Ala-Ala-Phe-Phe-Ala-Ala-Lys-Compound III
T1 sequence: AAFFAAK

In the case of pepsin, the “Cy5 fluorescence intensity over time (FRET quench release on cleavage), with and without pepsin” value is reported as “Protease-catalysed hydrolysis of the substrate removes this quenching, restoring the Cy5 fluorescence”.
